From patent publication US10245299B2, “Autoassembling peptides for the treatment of pulmonary bulla” (3-D MATRIX, LTD., priority 2014, dated 2019)

Tests used:
Format in all cases: physicochemical
[1] = Appearance of 1.5% peptide solutions with various salts at room temperature; conditions: for Appearance: IEIK13 solution, room temperature
Procedure: The effect of salt ionic strength level on the properties of peptide solutions was evaluated to identify optimized salt ionic strength levels for the peptides as described herein. Increasing the salt ionic strength level of PuraMatrix® and other peptides may generally improve its function and mechanical strength for various clinical applications. To adjust the salt ionic strength of the peptide solutions by way of example, various salt buffer solutions including NaCl, KCl, MgCl2, CaCl2 and DPBS (10×) were added to 2 mL of 1.5% peptide solutions.

[2] = Gelation kinetics of pH adjusted peptides, time sweep with DMEM
Procedure: The effect of pH level on the properties of gelation kinetics was evaluated to identify optimized pH levels for the peptides as described herein. Fast gelation kinetics of PuraMatrix® and other peptides within body fluid may generally improve its function and response time for various clinical applications. The pH level may impart response time to begin gelation when treated with simulated body fluid including but not limited to DMEM. […] A fast response time of PuraMatrix® and other peptides within body fluid may generally improve its function and response time for various clinical applications.
(§1) Time sweep tests were performed at 1 rad/sec and at 1 Pa with 20 mm plates and 500 μm gap distance. During time sweep test of PuraMatrix® 2.5% solution, DMEM was added into the chamber surrounding the measuring plates to soak PuraMatrix® solution at 0 time point. The results are shown in FIG. 9A for PuraMatrix® 2.5% solution.
as §1, with “IEIK13 1.5%” for “PuraMatrix® 2.5%”, “IEIK13 1.5%” for “PuraMatrix®”, “point and continuously data was recorded.” for “point.”, “9B” for “9A”

[3] = Gelation of peptide solutions after saline buffer treatment, time sweep; conditions: saline buffer (0.15 M of NaCl); IEIK13 1.5%, KLD12 1.5%, PuraMatrix® 2.5% solution
Procedure: The effect of salt ionic strength level surrounding peptide solution on the properties of peptide solutions was evaluated to identify the possibility of peptide gelation when the peptide solution is placed into the environment where salt ionic strength level is high. […] Without pH effect, the effect of saline treatment on gelation of peptide solutions were evaluated. […] This is because IEIK13 is much more sensitive to salt ionic strength levels. Fast gelation of IEIK13 at the salt ionic strength level similar to body fluid isotonic salt level may generally improve its function and gelation speed for various clinical applications. The results are shown in FIG. 19 for IEIK13, KLD12 and PuraMatrix® solutions. Time sweep tests were performed at 1 rad/sec and at 1 Pa with 20 mm plates and 500 μm gap distance. […]

## Ile-Glu-Ile-Lys-Ile-Glu-Ile-Lys-Ile-Glu-Ile-Lys-Ile [IEIK13]
[1]; conc. 1.16%, KCl 0.045 M, ionic strength 0.045 M
  Appearance: Cloudy, phase-separated
[1]; conc. 1.2%, KCl 0.04 M, ionic strength 0.04 M
  Appearance: Slightly cloudy, brittle
[1]; conc. 1.2%, NaCl 0.04 M, ionic strength 0.04 M
  Appearance: Cloudy, phase-separated
[1]; conc. 1.24%, KCl 0.035 M, ionic strength 0.035 M
  Appearance: Slightly cloudy, brittle gel
[1]; conc. 1.24%, NaCl 0.035 M, ionic strength 0.035 M
  Appearance: Slightly cloudy, brittle gel
[1]; conc. 1.27%, KCl 0.03 M, ionic strength 0.03 M
  Appearance: Clear, thick, stiffer gel
[1]; conc. 1.27%, NaCl 0.03 M, ionic strength 0.03 M
  Appearance: Slightly cloudy, thick, stiffer gel
[1]; conc. 1.31%, KCl 0.025 M, ionic strength 0.025 M
  Appearance: Clear, thick, stiffer gel
[1]; conc. 1.31%, NaCl 0.025 M, ionic strength 0.025 M
  Appearance: Clear, thick, stiffer gel
[1]; conc. 1.35%, KCl 0.02 M, ionic strength 0.02 M
  Appearance: Clear, thick, stiffer gel
[1]; conc. 1.35%, NaCl 0.02 M, ionic strength 0.02 M
  Appearance: Clear, thick, stiffer gel
[1]; conc. 1.36%, CaCl2 0.0183 M, ionic strength 0.055 M
  Appearance: Cloudy, phase-separated
[1]; conc. 1.36%, MgCl2 0.0183 M, ionic strength 0.055 M
  Appearance: Cloudy, phase-separated
[1]; conc. 1.37%, CaCl2 0.0167 M, ionic strength 0.05 M
  Appearance: Slightly cloudy, brittle gel
[1]; conc. 1.37%, MgCl2 0.0167 M, ionic strength 0.05 M
  Appearance: Slightly cloudy, brittle gel
[1]; conc. 1.39%, CaCl2 0.015 M, ionic strength 0.045 M
  Appearance: Slightly cloudy, thick, stiffer gel
[1]; conc. 1.39%, KCl 0.015 M, ionic strength 0.015 M
  Appearance: Clear, thick, stiffer gel
[1]; conc. 1.39%, MgCl2 0.015 M, ionic strength 0.045 M
  Appearance: Slightly cloudy, stiffer gel
[1]; conc. 1.39%, NaCl 0.015 M, ionic strength 0.015 M
  Appearance: Clear, thick, stiffer gel
[1]; conc. 1.40%, CaCl2 0.0133 M, ionic strength 0.04 M
  Appearance: Slightly cloudy, thick, stiffer gel
[1]; conc. 1.40%, MgCl2 0.0133 M, ionic strength 0.04 M
  Appearance: Slightly cloudy, thick, stiffer gel
[1]; conc. 1.41%, CaCl2 0.0117 M, ionic strength 0.035 M
  Appearance: Clear, thick, stiffer gel
[1]; conc. 1.41%, MgCl2 0.0117 M, ionic strength 0.035 M
  Appearance: Clear, thick, stiffer gel
[1]; conc. 1.43%, CaCl2 0.01 M, ionic strength 0.03 M
  Appearance: Clear, thick, stiffer gel
[1]; conc. 1.43%, KCl 0.01 M, ionic strength 0.01 M
  Appearance: Clear, thick, stiffer gel
[1]; conc. 1.43%, MgCl2 0.01 M, ionic strength 0.03 M
  Appearance: Clear, thick, stiffer gel
[1]; conc. 1.43%, NaCl 0.01 M, ionic strength 0.01 M
  Appearance: Clear, thick, stiffer gel
[1]; conc. 1.44%, CaCl2 0.0083 M, ionic strength 0.025 M
  Appearance: Clear, thick, stiffer gel
[1]; conc. 1.44%, MgCl2 0.0083 M, ionic strength 0.025 M
  Appearance: Clear, thick, stiffer gel
[1]; conc. 1.45%, CaCl2 0.0067 M, ionic strength 0.02 M
  Appearance: Clear, thick, stiffer gel
[1]; conc. 1.45%, MgCl2 0.0067 M, ionic strength 0.02 M
  Appearance: Clear, thick, stiffer gel
[1]; conc. 1.46%, CaCl2 0.005 M, ionic strength 0.015 M
  Appearance: Clear, thick, stiffer gel
[1]; conc. 1.46%, KCl 0.005 M, ionic strength 0.005 M
  Appearance: Clear, thick, stiffer gel
[1]; conc. 1.46%, MgCl2 0.005 M, ionic strength 0.015 M
  Appearance: Clear, thick, stiffer gel
[1]; conc. 1.46%, NaCl 0.005 M, ionic strength 0.005 M
  Appearance: Clear, thick, stiffer gel
[1]; conc. 1.5%, CaCl2 0 M, ionic strength 0 M
  Appearance: Clear, thick gel
[1]; conc. 1.5%, KCl 0 M, ionic strength 0 M
  Appearance: Clear, thick gel
[1]; conc. 1.5%, MgCl2 0 M, ionic strength 0 M
  Appearance: Clear, thick gel
[1]; conc. 1.5%, NaCl 0 M, ionic strength 0 M
  Appearance: Clear, thick gel
[1]; depending on different salts, 1.5% peptide solutions
  salt ionic strength increase that did not change the clear color of the solution (apparent stiffness increased): 0.025˜0.035 M
[2]; with pH adjustment, PuraMatrix® 2.5%, IEIK13 1.5% solution
  storage modulus response on DMEM addition: immediate storage modulus increase
[2]; without pH adjustment
  storage modulus response on DMEM addition: immediate storage modulus increase
[3]
  gelation after saline buffer treatment: fast gelation
